Experimental data published in patent US20150218257A1 (published 2015).

Tests used:
[1] = molecular target: T1, HIV-1 YU2 gp160 expressed on the surface of transfected 293/293T cells (HIV-1 strain YU2, UniProt P35961 32-843); assay: binding to YU2 gp160 on the cell surface (FIG. 7)
T1 construct: whole, on cells

[2] = molecular target: HIV-1 ADA Env (gp160), on transfected 293 cells or on ADA pseudovirus (HIV-1 strain ADA); assay: cell-based or functional assay
[3] = molecular target: HIV-1 JR-FL(E168K) Env on pseudovirus (HIV-1 strain JR-FL); assay: cell-based or functional assay
[4] = molecular target: HIV-1 92RW020 Env on pseudovirus (HIV-1 strain 92RW020); assay: cell-based or functional assay

Row | Binder | binding result [1] | IC50 (ug/ml), pseudovirus neutralisation, TZM-bl assay [2] | IC50 (ug/ml), pseudovirus neutralisation, TZM-bl assay [3] | IC50 (ug/ml), pseudovirus neutralisation, TZM-bl assay [4]
1 | 1443_C16 (PG16) human monoclonal antibody (antibody, V domains shown) VH: QEQLVESGGGVVQPGGSLRLSCLASGFTFHKYGMHWVRQAPGKGLEWVALISDDGMRKYHSDSMWGRVTISRDNSKNTLYLQFSSLKVEDTAMFFCAREAGGPIWHDDVKYYDFNDGYYNYHYMDVWGKGTTVTVSS VL: QSALTQPASVSGSPGQTITISCNGTSSDVGGFDSVSWYQQSPGKAPKVMVFDVSHRPSGISNRFSGSKSGNTASLTISGLHIEDEGDYFCSSLTDRSHRIFGGGTKVTVLG | binds | 0.004 µg/mL | 0.006 µg/mL | 0.09 µg/mL
2 | 1496_C09 (PG9) human monoclonal antibody (antibody, V domains shown) VH: QRLVESGGGVVQPGSSLRLSCAASGFDFSRQGMHWVRQAPGQGLEWVAFIKYDGSEKYHADSVWGRLSISRDNSKDTLYLQMNSLRVEDTATYFCVREAGGPDYRNGYNYYDFYDGYYNYHYMDVWGKGTTVTVSS VL: QSALTQPASVSGSPGQSITISCNGTSNDVGGYESVSWYQQHPGKAPKVVIYDVSKRPSGVSNRFSGSKSGNTASLTISGLQAEDEGDYYCKSLTSTRRRVFGTGTKLTVLG |  | 0.2 µg/mL |  | 0.1 µg/mL
